Reference: IntAct's records for PubMed 15901672

B1: Phorbol-12-myristate-13-acetate-induced protein 1 (Homo sapiens), Q13794 (parent)
chain: MPGKKARKNAQPSPARAPAELEVECATQLRRFGDKLNFRQKLLNLISKLFCSGT
B2: Bcl-2 homologous antagonist/killer (Homo sapiens), Q16611 (parent)
chain: MASGQGPGPPRQECGEPALPSASEEQVAQDTEEVFRSYVFYRHQQEQEAEGVAAPADPEMVTLPLQPSSTMGQVGRQLAIIGDDINRRYDSEFQTMLQHLQPTAENAYEYFTKIATSLFESGINWGRVVALLGFGYRLALHVYQHGLTGFLGQVTRFVVDFMLHHCIARWIAQRGGWVAALNLGNGPILNVLVVLGVVLLGQFVVRRFFKS

Variants of: B1
Conditions: with mcl1_human MCL1, Q07820
Target sequence in this assay (Q07820 whole entry): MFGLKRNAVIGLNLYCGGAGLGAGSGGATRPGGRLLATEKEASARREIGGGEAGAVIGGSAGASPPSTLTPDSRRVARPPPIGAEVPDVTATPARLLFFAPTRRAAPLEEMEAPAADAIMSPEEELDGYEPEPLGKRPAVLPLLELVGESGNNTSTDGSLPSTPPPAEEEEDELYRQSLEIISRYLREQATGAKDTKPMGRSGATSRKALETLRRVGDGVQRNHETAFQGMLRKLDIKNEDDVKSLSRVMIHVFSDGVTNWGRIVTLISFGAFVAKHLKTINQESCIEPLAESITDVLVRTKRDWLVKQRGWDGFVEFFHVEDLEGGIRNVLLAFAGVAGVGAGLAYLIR

| effect of a mutation on the interaction | Variant |
| --- | --- |
| decreasing interaction | F32E |
| decreasing interaction | L36E |
| decreasing interaction | L29E |

Variants of: B2
Conditions: with mcl1_mouse Mcl1, P97287
Sequence of mcl1_mouse Mcl1, P97287 (P97287 whole entry): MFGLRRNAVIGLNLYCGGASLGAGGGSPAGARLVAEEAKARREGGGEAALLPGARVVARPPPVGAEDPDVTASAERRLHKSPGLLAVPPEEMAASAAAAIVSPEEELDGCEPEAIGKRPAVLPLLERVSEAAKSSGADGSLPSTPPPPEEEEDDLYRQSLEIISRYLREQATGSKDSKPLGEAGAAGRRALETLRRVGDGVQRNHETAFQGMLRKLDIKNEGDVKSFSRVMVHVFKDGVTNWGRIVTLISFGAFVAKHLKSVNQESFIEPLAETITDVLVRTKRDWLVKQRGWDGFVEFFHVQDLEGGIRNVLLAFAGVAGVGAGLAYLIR

| effect of a mutation on the interaction | Variant |
| --- | --- |
| decreasing interaction | L78A |

Variants of: B2
Conditions: with mcl1_human MCL1, Q07820
Target sequence in this assay (Q07820 whole entry): as the sequence (Q07820 whole entry) above

| effect of a mutation on the interaction | Variant |
| --- | --- |
| decreasing interaction | L78A |

Variants of: B2
Conditions: with bax_human BAX

| effect of a mutation on the interaction | Variant |
| --- | --- |
| decreasing interaction | L78A |
